From the RNAGym collection of RNA variant scans (doi:10.1073/pnas.2313332121)
This sample holds only a part of the variants without activity.

B1: TPR 5TU (parent)
chain: GGAUCUUCUCGAUCUAACAAAAAAGACAAAUCUGCCACAAAGCUUGAGAGCAUCUUCGGAUGCAGAGGCGGCAGCCUUCGGUGGCGCGAUAGCGCCAACGUUCUCAACUAUGACACGCAAAACGCGUGCUCCGUUGAAUGGAGUUUAUCAUG

Variants of: B1
Test: polymerase ribozyme fitness, log enrichment relative to wild type (log ratio); higher = more active; in vitro selection for triplet polymerase activity
Outline: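 One round of in vitro selection, in triplicate, was applied to PCR-built, transcribed mutant libraries of each subunit of a heterodimeric triplet polymerase ribozyme. The steps were annealing with a biotinylated primer, partner subunit and triplets, incubation frozen at −7 °C, gel excision of extended constructs, streptavidin-bead capture and RT-PCR. Fitness is the logarithm, base 2, of genotype enrichment over wild-type enrichment from inverse-variance-weighted replicate averages of Illumina-sequenced inputs and outputs, keeping genotypes with ≥10 input reads and ≥1 read per output.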

Variant	polymerase ribozyme fitness (log ratio)
G11A G25C G50A A52G C75G U90G C103U U144A	≤ -4.2
C10U A22C G46A G50A C79G C85U C105U	≤ -4.2
C10U G58U G83A A89C A110G U148A	≤ -4.2
G11U U56A A64G C118U A121U	≤ -4.2
C10U A41U G70C G83U C108U U134A A142G	≤ -4.2
A12C A19C U45G G84U A142C	≤ -4.2
C10U C32A C51G A106G A142C U148A	≤ -4.2
C10U A91U C96A A98U A142G U151C	≤ -4.2
G11A A26C C27G C35U C87A G124A	-4.15
G11A A19U U61A G84C C85A C103G	≤ -4.2
C10U A64C A89C G117C A137C	≤ -4.2
C10U C18U U44G A60G G92A	≤ -4.2
G11C A37C U55G C93A C99G G124U C149U	≤ -4.2
C10U U55A C72U	-3.95
C10U U53C U55A G86A G88C	≤ -4.2
C10G U55G C103A	≤ -4.2
G11A A41U A52U U55A C118U	≤ -4.2
G11U A26U G83A	-4.06
C10U C103G C132U	≤ -4.2
G11A U44A A52G C75U C76U G92C C149G	≤ -4.2
C10U A29G G59A G81A A97G	≤ -4.2

Variant	polymerase ribozyme fitness (log ratio)
G11U A22C C87U	-2.61
G11A A12G C38U A41U C69U G83U	-3.51
G11A A17G C43U G94U A122G G141U	≤ -4.2
C10U U45A C99A	≤ -4.2
G11A A91G	-3.81
G11C G46A G58A G83A	-3.26
G11U C32U C93G A107G	≤ -4.2
G11C A40C G83U A119G	-2.65
G11A A19U U56G U82C G84U C95U	≤ -4.2
C10U A24U C35U A91G C93G A98C C118U	≤ -4.2
G11U U56A C79G C87G C96U A142G	≤ -4.2
G11C C75U	-1.85
G11A C14G A19U C27A U31C C118G	≤ -4.2
G11U A22G C54U G65A C76U A98U C103G U144G	≤ -4.2
G11A C54U U61A C95A C149G	≤ -4.2
A12C	0.0783
G11A A21U C85U	-1.32
G11A A17C A39C	-3.25
G11A C38A A40G	-4.14
G11U A52G A60G G83U	-3.33
G11C U148G	≤ -4.2

Variant	polymerase ribozyme fitness (log ratio)
G11A U134A	-3.6
C10U C14G C76U A106G A107G C108U	≤ -4.2
G11A A52G U53A C54A G84U G128U C132U	-4.13
G11A A24G A60U U78C G92A G100A	≤ -4.2
C10U C14G G34U U56G	≤ -4.2
C10U C35U	-3.04
G11U U53A G65A A73U G83C U144A	≤ -4.2
A12C A20U U61A G92U C131A	≤ -4.2
G11U A41U C93U C99A U104G C118U G140U G152U	-4.02
A12C A17U U53A C96A U139G	-3.83
C10U U44A U102G A119C A121G A137C G143A	≤ -4.2
G11U C96G	-1.31
G11C G58A	-1.65
G11U C32U G84A C85A C105U C132U U139G U151G	-4.14
C10U G88U	≤ -4.2
G11C A28G U56A U77A C87A A122U	≤ -4.2
C10U A22U C79A G83C A106U	≤ -4.2
C10U C27U C35G C87G C96U U148G	≤ -4.2
G11C U56A G86A	≤ -4.2
G11U C54A	-2.47
G11A U31A	-0.715

Variant	polymerase ribozyme fitness (log ratio)
G11U A29C A89C C125U	-4.16
G11A A26C U90G	≤ -4.2
G11U A23U C57U G86A	≤ -4.2
G11C G48A A52G C96U A113G C118U G141U A142C U151G	≤ -4.2
G11A A17C A49C C85U A91U G136U	≤ -4.2
G11C G25C A28G C36G C75U C96U A115U A122U	-3.98
C10G U31A U44C C57A G59U U61G G92C A107U	≤ -4.2
C10U U55A	-2.91
C10U G59A C93U A137G	≤ -4.2
G11U A40C G70C C103G	≤ -4.2
G11A C85G G94U	-0.903
C10G U53A C57U G86C A106G C108G A113G U127G	≤ -4.2
G11A G48C G92U	-0.981
G11A A24G A41U C51A G59A G80A G84U U90A	≤ -4.2
C10U C57U C96U	-3.83
C10U U13C A17U C76A C105U	≤ -4.2
G11C A20U C36U A60G C93G	≤ -4.2
G11U A73U G81A G83C G86U G126C G136C	≤ -4.2
G11A G92U	-1.16
G11C C87U	-2.7
